Source: article PMC8238519 (Biochemical Journal, 2021)

How the values were obtained:
[1] = molecular target: Chlamydomonas reinhardtii photosystem I PsaA-Asp648Arg (Chlamydomonas reinhardtii) (UniProt P12154)
pea PsaA = pea PsaA (Pisum sativum (pea), UniProt P05310 16-758); assay: cryo-EM structure
pea PsaB = pea PsaB (Pisum sativum (pea), UniProt P05311 13-734); assay: cryo-EM structure
pea PsaB, sequence (P05311 13-734): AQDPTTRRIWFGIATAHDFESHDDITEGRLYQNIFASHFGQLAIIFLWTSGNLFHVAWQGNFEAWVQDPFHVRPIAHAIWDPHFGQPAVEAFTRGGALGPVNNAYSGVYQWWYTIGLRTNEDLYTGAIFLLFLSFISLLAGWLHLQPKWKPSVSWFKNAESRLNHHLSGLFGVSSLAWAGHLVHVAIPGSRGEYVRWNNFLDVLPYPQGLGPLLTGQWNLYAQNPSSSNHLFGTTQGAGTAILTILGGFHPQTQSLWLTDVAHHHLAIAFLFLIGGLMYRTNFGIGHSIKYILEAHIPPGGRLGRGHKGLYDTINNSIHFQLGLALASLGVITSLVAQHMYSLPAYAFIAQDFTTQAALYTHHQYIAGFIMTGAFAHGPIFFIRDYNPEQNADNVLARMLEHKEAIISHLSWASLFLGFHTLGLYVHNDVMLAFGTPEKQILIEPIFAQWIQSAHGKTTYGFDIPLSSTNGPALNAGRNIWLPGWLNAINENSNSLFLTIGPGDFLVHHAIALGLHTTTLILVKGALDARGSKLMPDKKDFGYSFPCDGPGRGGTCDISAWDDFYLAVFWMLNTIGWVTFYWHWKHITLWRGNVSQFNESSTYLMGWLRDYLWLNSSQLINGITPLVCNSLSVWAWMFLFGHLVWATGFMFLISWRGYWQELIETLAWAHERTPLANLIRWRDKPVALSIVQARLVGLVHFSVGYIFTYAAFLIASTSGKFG

pea PsaA, sequence (P05310 16-758): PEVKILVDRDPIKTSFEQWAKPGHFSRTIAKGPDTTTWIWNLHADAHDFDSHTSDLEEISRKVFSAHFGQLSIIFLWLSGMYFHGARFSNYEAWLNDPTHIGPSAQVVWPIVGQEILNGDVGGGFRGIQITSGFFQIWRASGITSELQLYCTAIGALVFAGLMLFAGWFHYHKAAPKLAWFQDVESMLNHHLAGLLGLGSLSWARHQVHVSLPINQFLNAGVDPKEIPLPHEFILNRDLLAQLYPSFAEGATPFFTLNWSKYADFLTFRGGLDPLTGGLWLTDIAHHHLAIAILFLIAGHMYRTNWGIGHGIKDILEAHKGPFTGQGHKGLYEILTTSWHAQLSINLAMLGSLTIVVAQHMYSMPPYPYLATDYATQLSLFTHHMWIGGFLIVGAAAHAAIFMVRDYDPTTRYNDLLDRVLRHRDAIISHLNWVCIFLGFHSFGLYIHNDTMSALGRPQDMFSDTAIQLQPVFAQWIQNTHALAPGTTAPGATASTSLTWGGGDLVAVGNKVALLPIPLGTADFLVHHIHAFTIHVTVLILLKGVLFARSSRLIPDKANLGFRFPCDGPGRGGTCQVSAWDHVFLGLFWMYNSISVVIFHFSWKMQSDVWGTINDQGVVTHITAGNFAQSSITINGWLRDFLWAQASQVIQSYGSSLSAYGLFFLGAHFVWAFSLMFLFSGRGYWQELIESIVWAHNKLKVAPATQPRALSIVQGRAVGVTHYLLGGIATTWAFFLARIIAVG

## Chlamydomonas reinhardtii plastocyanin (natural protein)
[1]
  second-order rate constant of P700+ reduction by Pc (single flash absorption): 6.54e+07 M⁻¹ s⁻¹

B1: pea plastocyanin (natural protein, pea (Pisum sativum), UniProt P16002 70-168, looked up)
chain: VEVLLGASDGGLAFVPSSLEVSAGETIVFKNNAGFPHNVVFDEDEIPAGVDASKISMPEEDLLNAPGETYSVKLDAKGTYKFYCSPHQGAGMVGQVTVN
Pea PsaA
  binding result: binds
Pea PsaB
  binding result: binds
